Measured values taken from patent US20090005253A1 (AVENTIS PHARMA S A, published 2009).

Legend:
[1] = molecular target: T1, DNA-binding domain (DBD) of GAL4p expressed alone from pDBT (Saccharomyces cerevisiae, UniProt P04386 1-147, limits assumed); assay: yeast two-hybrid control (pRB34+pDBT), URA3 reporter in strain Y187
T1 construct: Negative control partner
Experimental: (§1) The activity of the constructs is first verified (FIGS. 6A and 6F). […] Two clones of each of these transformants are cultured on minimum medium with and without uracil ((FIGS. 6A and 6F).
Firstly, the activity of the constructs was verified. […] Two clones cotransformed by each of these pairs of plasmids are selected. Their capacity to grow on minimum medium with and without uracil is studied.

[2] = molecular target: T2, fusion protein DBD-mdm2 (GAL4 DBD fused to the entire Mdm2 human protein) (Saccharomyces cerevisiae; human, UniProt P04386 1-147; Q00987 1-491, limits assumed); assay: yeast two-hybrid control (pTAL20+pDBT-mdm2), URA3 reporter in strain Y187
T2 construct: also called pDBT-mdm2
Experimental: as §1

[3] = molecular target: T1, DNA-binding domain (DBD) of GAL4p …; assay: reverse two-hybrid UI strain yRB49; growth not affected on medium with 1 mM 3-AT

Binder	binding result [1]	binding result [2]	binding result [3]
fusion protein AD-Fe65 (GAL4 activation domain fused to amino acids 152 to 708 of Fe65) (other, also called pRB34) MDKAELIPEPPKKKRKVELGTAANFNQSGNIADSSLSFTFTNSSNGPNLITTQTNSQALSQPIASSNVHDNFMNNEITASKIDDGNNSKPLSPGWTDQTAYNAFGITTGMFNTTTMDDVYNYLFDDEDTPPNPKKEIEFKAAGEAEEEEEDDDDEEEEEDLSSPPGLPEPLESVEAPPRPQALTDGPREHSKSASLLFGMRNSAASDEDSSWATLSQGSPSYGSPEDTDSFWNPNAFETDSDLPAGWMRVQDTSGTYYWHIPTGTTQWEPPGRASPSQGSSPQEESQLTWTGFAHGEGFEDGEFWKDEPSDEAPMELGLKEPEEGTLTFPAQSLSPEPLPQEEEKLPPRNTNPGIKCFAVRSLGWVEMTEEELAPGRSSVAVNNCIRQLSYHKNNLHDPMSGGWGEGKDLLLQLEDETLKLVEPQSQALLHAQPIISIRVWGVGRDSGRDFAYVARDKLTQMLKCHVFRCEAPAKNIATSLHEICSKIMAERRNARCLVNGLSLDHSKLVDVPFQVEFPAPKNELVQKFQVYYLGNVPVAKPVGVDVINGALESVLSSSSREQWTPSHVSVAPATLTILHQQTEAVLGECRVRFLSFLAVGRDVHTFAFIMAAGPASFCCHMFWCEPNAASLSEAVQAACMLRYQKCLDARSQASTSCLPAPPAESVARRVGWTVRRGVQSLWGSLKPKRLGAHTP	no binding	–	–
activation domain (AD) of GAL4p expressed alone from pTAL20 (other, Saccharomyces cerevisiae, UniProt P04386 768-881, looked up, Negative control partner) ANFNQSGNIADSSLSFTFTNSSNGPNLITTQTNSQALSQPIASSNVHDNFMNNEITASKIDDGNNSKPLSPGWTDQTAYNAFGITTGMFNTTTMDDVYNYLFDDEDTPPNPKKE	–	no binding	no binding
